# Source: patent publication EP4803151A2 (Lepu Biopharma Co., Ltd., dated 2026)
# T1: human DLL1 his tag fusion protein (Sino Biological, Cat. No. 11635-H08H) (human, UniProt O00548 18-540)
# T1 construct: Bought protein; also called hDLL1-his; hDLL1 protein; not shown: his tag
# T1 sequence (looked up): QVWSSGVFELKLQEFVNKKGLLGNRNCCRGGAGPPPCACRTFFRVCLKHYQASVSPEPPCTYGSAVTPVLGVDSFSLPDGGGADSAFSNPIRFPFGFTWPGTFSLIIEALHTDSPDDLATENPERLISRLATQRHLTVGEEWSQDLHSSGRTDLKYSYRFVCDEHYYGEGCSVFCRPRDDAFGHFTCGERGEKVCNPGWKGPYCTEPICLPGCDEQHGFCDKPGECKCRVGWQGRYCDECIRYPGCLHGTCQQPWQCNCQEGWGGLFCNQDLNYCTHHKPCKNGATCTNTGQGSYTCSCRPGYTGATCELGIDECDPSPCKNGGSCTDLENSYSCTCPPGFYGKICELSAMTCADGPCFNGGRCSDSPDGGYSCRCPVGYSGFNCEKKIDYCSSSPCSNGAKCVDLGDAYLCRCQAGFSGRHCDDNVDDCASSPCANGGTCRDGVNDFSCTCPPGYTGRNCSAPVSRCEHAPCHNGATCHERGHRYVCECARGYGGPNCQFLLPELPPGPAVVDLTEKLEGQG
# T2: mouse DLL3 his tag protein (KACTUS, Cat. No. DLL-MM103) (mouse, UniProt O88516 33-490, limits assumed)
# T2 construct: Bought protein; also called mDLL3-his; mouse DLL3 protein; not shown: his tag
# T2 sequence (looked up): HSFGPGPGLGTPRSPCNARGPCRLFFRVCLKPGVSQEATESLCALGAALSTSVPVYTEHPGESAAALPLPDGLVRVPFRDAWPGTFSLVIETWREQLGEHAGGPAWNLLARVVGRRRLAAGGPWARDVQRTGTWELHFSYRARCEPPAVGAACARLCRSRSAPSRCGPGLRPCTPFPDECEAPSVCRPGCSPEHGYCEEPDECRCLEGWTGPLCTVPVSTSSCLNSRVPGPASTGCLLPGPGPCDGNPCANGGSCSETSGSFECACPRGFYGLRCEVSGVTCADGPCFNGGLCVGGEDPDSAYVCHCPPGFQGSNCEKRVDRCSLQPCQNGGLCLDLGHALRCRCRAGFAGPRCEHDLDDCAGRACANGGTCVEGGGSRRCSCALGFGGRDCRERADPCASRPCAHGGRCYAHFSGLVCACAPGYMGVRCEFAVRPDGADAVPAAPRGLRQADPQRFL
# T3: human full length DLL1 expressed on CHO-K1 cells (human, UniProt O00548 18-723)
# T3 construct: whole, on cells; also called CHO-K1-hDLL1
# T3 sequence (looked up): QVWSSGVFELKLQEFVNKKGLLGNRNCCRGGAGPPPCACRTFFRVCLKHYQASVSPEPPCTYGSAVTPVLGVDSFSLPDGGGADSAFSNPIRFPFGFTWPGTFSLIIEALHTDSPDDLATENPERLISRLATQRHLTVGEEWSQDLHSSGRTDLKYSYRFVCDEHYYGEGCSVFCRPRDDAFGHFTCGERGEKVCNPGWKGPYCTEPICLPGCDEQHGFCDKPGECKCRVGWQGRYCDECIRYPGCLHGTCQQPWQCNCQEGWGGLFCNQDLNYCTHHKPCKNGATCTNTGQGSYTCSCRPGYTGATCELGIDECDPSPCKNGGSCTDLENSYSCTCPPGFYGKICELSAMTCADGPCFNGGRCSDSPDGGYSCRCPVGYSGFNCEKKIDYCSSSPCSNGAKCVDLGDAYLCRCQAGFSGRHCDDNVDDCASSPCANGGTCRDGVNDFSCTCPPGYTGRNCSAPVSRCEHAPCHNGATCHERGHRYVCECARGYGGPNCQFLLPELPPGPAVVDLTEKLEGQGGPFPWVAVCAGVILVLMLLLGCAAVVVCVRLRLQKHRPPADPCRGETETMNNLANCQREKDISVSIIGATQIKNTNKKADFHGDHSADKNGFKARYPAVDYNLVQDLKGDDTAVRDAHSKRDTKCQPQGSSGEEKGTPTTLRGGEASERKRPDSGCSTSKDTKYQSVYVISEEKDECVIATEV
# T4: ECD of human DLL3 over-expressed on HEK293 cells (human, UniProt Q9NYJ7 27-492)
# T4 construct: extracellular domain; also called HEK293-hDLL3; human DLL3 expressed on HEK293 cells
# T4 sequence (looked up): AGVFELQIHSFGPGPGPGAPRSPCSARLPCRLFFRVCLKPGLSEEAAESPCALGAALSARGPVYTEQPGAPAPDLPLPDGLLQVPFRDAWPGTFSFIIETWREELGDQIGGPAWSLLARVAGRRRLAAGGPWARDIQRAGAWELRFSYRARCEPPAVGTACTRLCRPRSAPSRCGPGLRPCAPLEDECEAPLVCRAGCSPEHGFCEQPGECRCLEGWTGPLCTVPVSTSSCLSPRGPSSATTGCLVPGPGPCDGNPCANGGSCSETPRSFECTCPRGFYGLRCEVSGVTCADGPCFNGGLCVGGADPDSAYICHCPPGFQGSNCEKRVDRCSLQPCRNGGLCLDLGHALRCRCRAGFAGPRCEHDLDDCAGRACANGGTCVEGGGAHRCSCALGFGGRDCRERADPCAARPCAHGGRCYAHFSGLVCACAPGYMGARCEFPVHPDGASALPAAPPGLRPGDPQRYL
# T5: human DLL3 endogenously expressed on SCLC tumor cell lines SHP77 and NCI-H82 (human, UniProt Q9NYJ7 27-618)
# T5 construct: whole, on cells; also called human DLL3 expressed on tumor cells
# T5 sequence (looked up): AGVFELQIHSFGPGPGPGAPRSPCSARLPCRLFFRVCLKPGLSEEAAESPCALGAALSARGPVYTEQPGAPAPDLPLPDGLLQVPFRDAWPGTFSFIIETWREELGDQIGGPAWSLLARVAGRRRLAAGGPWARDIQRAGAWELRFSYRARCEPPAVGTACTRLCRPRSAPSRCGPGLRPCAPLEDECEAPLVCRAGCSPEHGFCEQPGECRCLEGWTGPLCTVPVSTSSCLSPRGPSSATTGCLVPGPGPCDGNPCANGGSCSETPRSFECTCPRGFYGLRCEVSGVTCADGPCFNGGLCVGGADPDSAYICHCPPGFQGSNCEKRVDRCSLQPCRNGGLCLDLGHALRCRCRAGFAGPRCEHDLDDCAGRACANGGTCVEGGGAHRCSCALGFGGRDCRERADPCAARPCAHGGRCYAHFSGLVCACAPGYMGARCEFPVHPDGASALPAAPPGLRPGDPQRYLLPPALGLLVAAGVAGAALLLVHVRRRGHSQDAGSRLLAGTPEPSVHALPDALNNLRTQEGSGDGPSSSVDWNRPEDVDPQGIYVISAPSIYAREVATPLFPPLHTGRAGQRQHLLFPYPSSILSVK
# T6: ECD of human DLL3 protein fused with his tag (Acro Bio, Cat. No. DL3-H52H4) (human, UniProt Q9NYJ7 27-492)
# T6 construct: range 27-492; Bought protein; also called hDLL3-his; human DLL3-his protein; not shown: his tag
# T6 sequence (looked up): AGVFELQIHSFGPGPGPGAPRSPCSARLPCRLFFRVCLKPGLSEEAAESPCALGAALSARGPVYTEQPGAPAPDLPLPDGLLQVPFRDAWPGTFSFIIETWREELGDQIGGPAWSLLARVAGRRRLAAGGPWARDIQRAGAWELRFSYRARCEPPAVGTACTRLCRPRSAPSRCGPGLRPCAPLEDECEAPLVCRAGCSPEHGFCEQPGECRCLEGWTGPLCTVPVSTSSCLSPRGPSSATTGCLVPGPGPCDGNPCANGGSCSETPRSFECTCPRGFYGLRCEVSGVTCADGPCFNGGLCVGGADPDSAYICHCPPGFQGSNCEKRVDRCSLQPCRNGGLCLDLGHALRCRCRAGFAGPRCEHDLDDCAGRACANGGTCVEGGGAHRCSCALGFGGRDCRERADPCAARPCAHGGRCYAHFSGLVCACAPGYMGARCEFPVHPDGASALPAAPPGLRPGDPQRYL
# Assays:
# [1] = biological target: T1, human DLL1 his tag fusion protein (Sino …); test: ELISA, hDLL1-his coated at 1 ug/mL
# [2] = biological target: T7, human DLL4 his tag fusion protein (Sino Biological, Cat. No. 10171-H08H) (human, UniProt Q9NR61 27-524); test: ELISA, hDLL4-his coated at 1 ug/mL
# T7 construct: Bought protein; also called hDLL4-his; hDLL4 protein; not shown: his tag
# T7 sequence (Q9NR61 27-524 limits assumed): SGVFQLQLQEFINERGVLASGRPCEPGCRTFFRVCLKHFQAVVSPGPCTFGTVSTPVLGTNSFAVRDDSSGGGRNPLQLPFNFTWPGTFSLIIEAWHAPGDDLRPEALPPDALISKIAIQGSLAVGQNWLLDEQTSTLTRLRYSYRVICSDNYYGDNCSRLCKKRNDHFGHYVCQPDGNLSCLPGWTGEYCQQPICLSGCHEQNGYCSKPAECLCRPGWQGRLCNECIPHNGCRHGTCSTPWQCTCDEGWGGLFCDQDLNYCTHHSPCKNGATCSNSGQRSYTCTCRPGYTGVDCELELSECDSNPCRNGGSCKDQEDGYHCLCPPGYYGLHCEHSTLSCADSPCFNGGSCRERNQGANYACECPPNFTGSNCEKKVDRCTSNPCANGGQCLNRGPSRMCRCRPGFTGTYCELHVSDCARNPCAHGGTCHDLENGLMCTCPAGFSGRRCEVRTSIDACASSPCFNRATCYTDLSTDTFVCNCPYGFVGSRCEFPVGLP
# [3] = biological target: T2, mouse DLL3 his tag protein (KACTUS, …); test: ELISA, mDLL3-his coated at 1 ug/mL
# [4] = biological target: T3, human full length DLL1 expressed on …; test: flow cytometry on CHO-K1-hDLL1 cells
# [5] = biological target: T4, ECD of human DLL3 over-expressed on …; test: flow cytometry on HEK293-hDLL3 cells
# [6] = biological target: T5, human DLL3 endogenously expressed on …; test: flow cytometry on SHP77 and NCI-H82 cells
# [7] = biological target: T6, ECD of human DLL3 protein fused with …; test: SPR, Biacore 8K, antibody captured on Protein A chip, single dose of human DLL3-his
# [8] = biological target: T6, ECD of human DLL3 protein fused with …; test: ELISA, hDLL3-his coated at 1 ug/mL
binder,measurement,setting,value
"362H3D3-hIgG1 chimeric antibody (antibody, V domains shown) VH: EVQLQQSGPELLKPGASVKISCKASGYTFTDYTMHWVKQSHGRSLEWIGGIHPNYGGTSYNEKFKDKATLTVDKSSSTAYMEFRSLTSEDSAVYYCARWGYYGGSYWYFDVWGTGTTVTVSS VL: DIQMTQSPASLSVSVGETVTITCRASENIYSNLAWYQQKQGKSPQLLVYAATNLADGVPSRFSGSGSGTQYSLKINSLQSEDFGSYYCQHFWGTPYTFGGGTKLEIKR",binding result,[1],binds
same,binding result,[2],binds
same,binding result,[3],binds
same,binding result,[4],binds
same,binding result,[5],binds
same,binding result,[6],binds
same,binding result,[7],binds
"310P3C5-hIgG1 chimeric antibody (antibody, V domains shown) VH: EVQLQQSGPELVKPGASVKISCKASGYTFTDFYMNWVKQTHGKSLEWIGDANPNNGGTTHNPRFKGQATLTVDKSSNTAYMELRSLTSEDSAVYYCARGGLPGDFDYWGQGTTLTVSS VL: DIQMTQSSSSFSVSLGDRVTITCKASEDIYNRLAWYQQKPGNAPRLLISGVTSLETGVPSRFSGSGSGKDYTLSITSLQTEDVATYYCQQYWSFPWTFGGGTKLEIKR",binding result,[1],no binding (tested: up to 100 nM)
same,binding result,[2],no binding (tested: up to 100 nM)
same,binding result,[3],binds
same,binding result,[4],no binding (tested: highest dose level 100 nM)
same,binding result,[5],binds
same,binding result,[6],binds
same,binding result,[7],binds
"9E8D8-hIgG1 chimeric antibody (antibody, V domains shown) VH: QVQLQQSGAELVRPGASVKLSCKALGYTFTDSEIHWVKQTPVHGLEWIGAIHPRNGGTAYNQKFRGKATLSADRSSNTAYMELSSLTSEDSAVYYCSRGYFLDYWGQGTSVTVSS VL: not shown",binding result,[1],no binding (tested: up to 100 nM)
same,binding result,[8],binds
same,binding result,[2],no binding (tested: up to 100 nM)
same,binding result,[3],binds
same,binding result,[4],no binding (tested: highest dose level 100 nM)
same,binding result,[5],binds
same,binding result,[6],binds
"129H2B9-hIgG1 chimeric antibody (antibody, V domains shown) VH: EVNLEESGGGLVQPGGSMKLSCVVSGFTFSNYWMSWVRQSPEKGLEWVAEIRLKSDNYATHYAESVKGKFTISRDDSKSRLYLQMNSLRPEDTGIYYCTSNRFAYWGQGTLVTVSA VL: NIVMTQSPKSVSMSVGERVTLSCKASENVGTYVYWYQQKPEQSPKMMIYGASNRYTGVPDRFTGSGSATDFTLTIRSVQAEDLADYHCGQSYSYPFTFGSGTKLEIKR",binding result,[1],no binding (tested: up to 100 nM)
same,binding result,[2],no binding (tested: up to 100 nM)
same,binding result,[3],binds
same,binding result,[4],no binding (tested: highest dose level 100 nM)
same,binding result,[5],binds
same,binding result,[7],binds
"148C3A7-hIgG1 chimeric antibody (antibody, V domains shown) VH: EVQLQQSGPELIKPGTSVKMSCKASGYTFTTYLMHWVKQKPGQGLEWIGYINPYNDVTEYHEKFKDKATLTSDKSSSTAYMELSSLTSEDSAVYYCARLGGYGPGWYLDVWGAGTTVTVSS VL: DIQMTQSPASLSASVGETVTITCRASGSIHNYLAWYLHKQGKSPQLLVYNAKTLADGVPSRFSGSGSGTQYSLKINSLQPEDFGSYYCHHFWSTPWTFGGGTKLEIKR",binding result,[1],no binding (tested: up to 100 nM)
same,binding result,[2],no binding (tested: up to 100 nM)
same,binding result,[3],binds
same,binding result,[4],no binding (tested: highest dose level 100 nM)
same,binding result,[5],binds
same,binding result,[6],binds
same,binding result,[7],binds
"36B7F3-hIgG1 chimeric antibody (antibody, V domains shown) VH: QVQLQQSGPELVKPGASVKISCRASGYTFTDHHLNWVKQRPGQGLEWIGWIFPGSGSDYYNERFKDKATLTVDKSSSTAYMLLSSLTSEDSAVYFCERWDYWGQGTTLTVSS VL: QIVLTQSPTIMSASPGEKVTMTCSASSSISYMHWYQQKPGTSPKRWIYDTSTLASGVPARFSGGGSGTSYSLTISSMEAEDAATYYCHQRSSYPLTFGAGTKLELKR",binding result,[1],no binding (tested: up to 100 nM)
same,binding result,[8],binds
same,binding result,[2],no binding (tested: up to 100 nM)
same,binding result,[3],binds
same,binding result,[4],no binding (tested: highest dose level 100 nM)
same,binding result,[5],binds
same,binding result,[6],binds
